Source: publication PMC3155264 (Cell, 2011)

Columns and labels:
[1] = molecular target: the molecule itself; assay: SEC
[2] = molecular target: the molecule itself; assay: crystal structure

B1: MinE^21-88 (domain or fragment, E. coli, UniProt P0A734 21-88, looked up)
chain: RLQIIVAERRRSDAEPHYLPQLRKDILEVICKYVQIDPEMVTVQLEQKDGDISILELNVTLPEAEELK
B1: binds [1].

B2: MinE^I24N*-h (domain or fragment, E. coli, UniProt P0A734 12-88, looked up)
chain: KNTANIAKERLQNIVAERRRSDAEPHYLPQLRKDILEVICKYVQIDPEMVTVQLEQKDGDISILELNVTLPEAEELK
B2: binds [2].
